Assay results as given in patent US20160304628A1.
Primed or numbered codes have the meaning given here. Where no end group is shown, it is not given here. [ ]: non-standard residue; d: D form. The star is where a group is joined. Hpra′ = its azide, alkyne or alkene has reacted where a group follows in round brackets; Man9 = Man9 glycan, attached by click reaction of Man9-azide with homopropargylglycine; maleimide‑biotin = maleimide-biotin reagent joined to deprotected Cys; For = O=C*

Legend:
[1] = target: HIV broadly neutralizing monoclonal antibody 2G12; test: BLI (BLItz), biotin-10F2 on streptavidin sensor, 2G12 in solution at 1 nM
[2] = target: HIV broadly neutralizing monoclonal antibody 2G12; test: BLI (BLItz), biotin-10F2 on streptavidin sensor, 2G12 in solution at 2 nM
[3] = target: HIV broadly neutralizing monoclonal antibody 2G12; test: BLI (BLItz), biotin-10F2 on streptavidin sensor, 2G12 in solution at 4 nM
[4] = target: HIV broadly neutralizing monoclonal antibody 2G12; test: BLI (BLItz), biotin-10F2 on streptavidin sensor, 2G12 in solution at 8 nM
[5] = target: HIV broadly neutralizing monoclonal antibody 2G12; test: BLI (BLItz), biotin-10F2 on streptavidin sensor, 2G12 in solution at 16 nM
[6] = target: HIV broadly neutralizing monoclonal antibody 2G12; test: BLI (BLItz), biotin-10F2 on streptavidin sensor, 2G12 in solution at 32 nM
[7] = target: HIV broadly neutralizing monoclonal antibody 2G12; test: BLI (BLItz), biotin-10F2 on streptavidin sensor, 2G12 in solution at 0.5 nM
[8] = target: HIV broadly neutralizing monoclonal antibody 2G12; test: BLI (BLItz), biotin-10F2 on streptavidin sensor, 2G12 in solution at 1 nM; global 1:1 fit
[9] = target: HIV broadly neutralizing monoclonal antibody 2G12; test: BLI (BLItz), biotin-10F2 on streptavidin sensor, 2G12 in solution at 2 nM; global 1:1 fit
[10] = target: HIV broadly neutralizing monoclonal antibody 2G12; test: BLI (BLItz), biotin-10F2 on streptavidin sensor, 2G12 in solution at 4 nM; global 1:1 fit
[11] = target: HIV broadly neutralizing monoclonal antibody 2G12; test: BLI (BLItz), biotin-10F2 on streptavidin sensor, 2G12 in solution at 8 nM; global 1:1 fit
[12] = target: HIV broadly neutralizing monoclonal antibody 2G12; test: BLI (BLItz), biotin-10F2 on streptavidin sensor, 2G12 in solution at 16 nM; global 1:1 fit
[13] = target: HIV broadly neutralizing monoclonal antibody 2G12; test: BLI (BLItz), biotin-10F2 on streptavidin sensor, 2G12 in solution at 32 nM; global 1:1 fit
[14] = target: HIV broadly neutralizing monoclonal antibody 2G12; test: BLI (BLItz), biotin-10F2 on streptavidin sensor, 2G12 in solution at 0.5 nM; global 1:1 fit
[15] = target: HIV broadly neutralizing monoclonal antibody 2G12; test: radiolabeled glycopeptide, 2G12 titration, protein G bead capture, scintillation counting

With For-[Hpra′](Man9)HPYNTSRTSA[Hpra′](Man9)[Hpra′](Man9)AALK[Hpra′](Man9)QVTD[Hpra′](Man9)YALALFHRILGSGSGC(maleimide‑biotin)A [biotinylated synthetic 10F2 glycopeptide 3] the Req [1] was 0.682, the Req [2] was 0.987 and the Req [3] was 1.26. The Req [4] was 1.37, the Req [5] was 1.41 and the Req [6] was 1.39. The Req [7] was 0.481, the Kd [8] was 1.37 nM and the koff [8] was 0.000151 s⁻¹. For the same binder, the kon [8] was 111000 M⁻¹ s⁻¹, the Kd [9] was 1.37 nM and the koff [9] was 0.000151 s⁻¹. For the same binder, the kon [9] was 111000 M⁻¹ s⁻¹, the Kd [10] was 1.37 nM and the koff [10] was 0.000151 s⁻¹. The kon [10] was 111000 M⁻¹ s⁻¹, the Kd [11] was 1.37 nM and the koff [11] was 0.000151 s⁻¹. The kon [11] was 111000 M⁻¹ s⁻¹, the Kd [12] was 1.37 nM and the koff [12] was 0.000151 s⁻¹. For the same binder, the kon [12] was 111000 M⁻¹ s⁻¹, the Kd [13] was 1.37 nM and the koff [13] was 0.000151 s⁻¹. For the same binder, the kon [13] was 111000 M⁻¹ s⁻¹, the Kd [14] was 1.37 nM and the koff [14] was 0.000151 s⁻¹. The kon [14] was 111000 M⁻¹ s⁻¹.

B1: glycopeptide 10F12 (Fixed library, round 10) (peptide)
peptide: For-[Hpra′](Man9)CYVTVIPA[Hpra′](Man9)N[Hpra′](Man9)PEARLGIVCH[Hpra′](Man9)PGIRRGKALYGSGSLGHHHHHHRDYKDDDDK
modifications: not fully specified; cysteine pairing not given here
In the case of B1, the Fmax [15] is reported as 90% and the Kd [15] is reported as 0.77 nM.

B2: glycopeptide 10F5 (Fixed library, round 10) (peptide)
peptide: For-[Hpra′](Man9)SPHLPVLLCK[Hpra′](Man9)VLNDGRRIVQ[Hpra′](Man9)SCELP[Hpra′](Man9)VRRSGSGSLGHHHHHHRDYKDDDDK
modifications: not fully specified; cysteine pairing not given here
B2 showed an Fmax [15] of 93% and a Kd [15] of 0.97 nM.
